The results in this text go back to article PMC5387032 (Photosynthesis Research, 2017).

The target in data set [1] is T1, RbcL from Thermosynechococcus elongatus, made in E. coli (Thermosynechococcus vestitus (strain …, UniProt Q8DIS5)).
T1 chain: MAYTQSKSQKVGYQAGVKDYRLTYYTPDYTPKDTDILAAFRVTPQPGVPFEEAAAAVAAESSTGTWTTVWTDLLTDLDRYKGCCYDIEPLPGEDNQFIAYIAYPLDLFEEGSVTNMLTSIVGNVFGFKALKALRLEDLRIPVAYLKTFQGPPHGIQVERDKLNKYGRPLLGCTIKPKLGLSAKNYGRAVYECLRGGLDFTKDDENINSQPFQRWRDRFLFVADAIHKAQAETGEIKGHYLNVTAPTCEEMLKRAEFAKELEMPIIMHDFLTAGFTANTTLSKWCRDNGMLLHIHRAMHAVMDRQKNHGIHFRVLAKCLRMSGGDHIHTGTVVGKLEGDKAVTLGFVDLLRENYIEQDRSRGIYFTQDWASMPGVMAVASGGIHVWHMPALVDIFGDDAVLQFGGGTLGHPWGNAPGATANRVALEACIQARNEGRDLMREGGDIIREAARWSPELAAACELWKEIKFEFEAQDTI
The data set is described as follows: co-expression in E. coli with co-purification of the complex; native PAGE.

Data set [2] concerns the molecule itself. The data set is described as follows: native gel or EMSA; raf1 from Synechocystis co-expressed with rbcL genes in E. coli (or rbcL alone); crude extracts separated by native PAGE and probed with anti-RbcL or anti-RAF1 antibodies. (A gel shift assay detects complexes by their altered migration in electrophoresis.)

As a reminder, the stoichiometry N is the number of molecules, sites or subunits per partner or assembly.

B1: RAF1 from Synechocystis sp. PCC 6803, untagged, made in E. coli (protein)
chain: MTHSPESNPTVSAAEAAELIRSLLHKEGTWVDWGKKCQQLQKAGYGAEEIFEQSGFQKVQQNLVIVASQVYESLVKQGIDETVLSYYRGPKSDVLYELRILNHQQRAIAAVEAQQKNLAADEAKELAKAFQEFGYLSQLPEGFTDHPGDALAYQCWKLARQKKNLPERTRLIVKGLKFAHSPNARQAIEKLLTDLTAQPSRKAPLVPVFRLEEDQEAARLIPVAGTFPLQPQAVQAVQSLEQVEPFGLVSYQGEGAVVPVPQWQAILTAEDPVAIFCPAGQVSESLARKDEQVLVVVDRSKKIWNDGSYFLLNQGETVAIQWCETEPEREILAQVVLVLRPKKIFDANNLREPWQMDD
Turning to B1, the binding result in data set [1] is “binds”.

B2: RbcL from Thermosynechococcus elongatus, made in E. coli (natural protein, UniProt Q8DIS5 1-475, looked up)
chain: T1 chain
notes: Ribulose-1,5-bisphosphate carboxylase/oxygenase large subunit, Thermosynechococcus elongatus; rbcL gene in the previously described pUC18rbcL plasmid (Tarnawski et al. 2008); also called RbcLTe; Te; source: E. coli Rosetta, expressed alone or co-expressed with raf1 or rbcX from Synechocystis, in crude extract; complexes purified (ammonium sulfate, Q-Sepharose)
On to B2, for which, in data set [2], the “stoichiometry N” value is 8.
